Data on 41 sequences can be found in the nanobody polyreactivity screen of Harvey et al. (2022).

The nature of the series: yeast display, Sf9 membrane polyspecificity reagent, FACS + sequencing; frameworks hold sequencing errors. In a few lines:
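Nanobodies came from a synthetic yeast display library in Saccharomyces cerevisiae BJ5465, induced with galactose for 36–48 hours and stained for 1 hour at 4 °C with 10% biotinylated, detergent-solubilized Sf9 membrane reagent. Cells were enriched on streptavidin microbeads and then FACS-sorted, with low and high (top ~1%) gates set on anti-HA fluorescence for expression and streptavidin fluorescence for reagent binding. Each polyreactivity label reflects the gate a clone came from. Genes were amplified by colony PCR, sequenced by MiSeq 2 × 250 and filtered by CDR length.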
With “QVQLVESGGGLVQAGCSLRLSCAASGSTYIRNAMGWYRQAPGKERELVAAISTSGSRTYYADSVKGRFTISRDNAKNTVYLQMNSLKPEDTAVYYCAKVPAGSRIEYDYCGQGTQVTVSS”, the “polyreactivity (PSR sort gate)” value is reported as “high polyreactivity”.

For “QVQLVESGGGLVQAGCSLRLSCAASGTIFWYYAMGWYRQAPGKERELVAAISSGGSTYYADSVKGRFTISRDNAKNTVYLQMNSLKPEDTAVYYCNVRLRKKIQNSKYDYWGQGTQVTVSS”, the “polyreactivity (PSR sort gate)” value is listed as “high polyreactivity”.

Turning to “QVQLVESGGGLVQAGCSLRLTCAASGRTFITNAKGWYRQAPVKERELVAAISSGTGGRTNYADSVKGRFTISRDNAKNTVYLQMNSRKPEDTAVYYCAARSTKYYPYGYWGQGTQVTLSS”, the “polyreactivity (PSR sort gate)” value is given as “high polyreactivity”.

Take “QVQLVESGGGLVQAGCSLRVSSAASGRIFVYYAMGRYRQAPGKERELVAAIRWTGGSTYYADSVKGRFTISRDNAKNTVYLQMNSVKPEDTAVYYCATVNRYCHFNYWGQGTQVTVSS”: the “polyreactivity (PSR sort gate)” value is reported as “high polyreactivity”.

In the case of “QVQLVESGGGLVQAGFSLRLSCAASGSIFFIYDKGWYRQAPGKERELVADITSGGGSTFYADSVKGRFTISRDNAKNTVYLQMNSLKPEDTAVYYCATDDHDQPGGQLYISEVNYWGQGTQVTVSS”, the “polyreactivity (PSR sort gate)” value is “low polyreactivity”.

For “QVQLVESGGGLVQAGGCLRLSCAASGFTFPFYAMGWYRQAPGKERELVAAITSRGGSTYYADSVKGRFTISRDNAKNTVYLQMNSLKPEHTAVYYCAARYTPRRYYYWGQGTQVTVSS”, the “polyreactivity (PSR sort gate)” value was “high polyreactivity”.

On to “QVQLVESGGGLVQAGGGLRLSCAASGRIFSPYAMGWDRQSPGKEMELVAAIRRSGVDTYYADSVKGRFTISRDNAKNTVYLQINSLKPEDTAVYYCAADPYWFFPHYDSWGQGTQVTVSS”, for which the “polyreactivity (PSR sort gate)” value is reported as “low polyreactivity”.

Consider “QVQLVESGGGLVQAGGGLRLSCAASGSTFVKNAMGWYRQAPGKERELVAAISYRGGRTYYADSVKGRFTISRDNAKNTVYLQMNSLKPEDTAVYYCAADASHLTGSEYWGQGTQVTVSS”, for which the “polyreactivity (PSR sort gate)” value is listed as “high polyreactivity”.

Consider “QVQLVESGGGLVQAGGILLLSCAASGGTFENYAMGWYIQAPGKERELVAAISSGGSTNYADSVKGRFTISRDNAKNTVYLQMNRLKPEDTAVYYCARYRVWGSNGHKLFHYDYWGQGTQVTVSS”, for which the “polyreactivity (PSR sort gate)” value is reported as “low polyreactivity”.

Turning to “QVQLVESGGGLVQAGGILLLSCAASGSIFKPYAMGWYTQAPGKERELVAAISKRGGSTSYADSVKGRFTISRDNAKNSVYLQMNSLKPEDTAVYYCAAVAAFSGLSWYDYWGLGTQVTVSS”, the “polyreactivity (PSR sort gate)” value is given as “high polyreactivity”.

“QVQLVESGGGLVQAGGILRISCAASGFIFDLYAMGWYRQAPGKERELVAAISGSGGSTYYADSVKGRFTISRDNAKNTVYLQMNSLKPEDTAVYYCAARRFGTNYDYWGQGTQVTVSS”: the “polyreactivity (PSR sort gate)” value is recorded as “high polyreactivity”.

With “QVQLVESGGGLVQAGGILRLSCAASGFIFEYYAMGWYRQAPGKERELVAAINGGGGNTYYADSVKGRFTISRDNAKNTVYLQMNSLKPEDTAVYYCNAKRRKYRYDYWGQGTQVTVSS”, the “polyreactivity (PSR sort gate)” value is given as “high polyreactivity”.

For “QVQLVESGGGLVQAGGILRLSCAASGFIFSSNAMGWYRQAPGKERELVAAITSSGGGTYYADSVKGRFTISRDNAKNTVYLQMNSLKPEDTAVYYCNAAYKYAIPSYGYWGQGTQVTVSS”, the “polyreactivity (PSR sort gate)” value was “low polyreactivity”.

Turning to “QVQLVESGGGLVQAGGILRLSCAASGFIFWYNAMGWYRQAPGKERELVARINIGGTTSYADSVKGRFTISRDNAKNNVYLQMNSLKREDTAVYYCNAVQGRQYDYWGQGTQVNVSS”, the “polyreactivity (PSR sort gate)” value is recorded as “low polyreactivity”.

“QVQLVESGGGLVQAGGILRLSCAASGFTFSSNAMGWYRPAPGKERELVAAISKGGGSTYYADSVKGRFTISRDNAKNSVYLQMNSLKPEDTAVYYCATRRRGGLTFDSWGQGTQVTVSS”: the “polyreactivity (PSR sort gate)” value was “high polyreactivity”.

“QVQLVESGGGLVQAGGILRLSCAASGFTFVGNAMGWYRKAAGKERELVATITSGGNTKYADSVKGRFTISRDNAKNTVYLQMNSLTPEDTAVYYCAAAKYNYRRFKYWGQGTQVTVSS”: the “polyreactivity (PSR sort gate)” value is recorded as “low polyreactivity”.

Consider “QVQLVESGGGLVQAGGILRLSCAASGIIFGYYAMGWYRQAPGKERELVAAISSIGGSTYYADSVKGRFTISRDNAKNTVYLQMNSLKPEDTAVYYCAAKYYGRYYRYLGSSFDYWGQGTQVTVSS”, for which the “polyreactivity (PSR sort gate)” value is on record as “high polyreactivity”.

With “QVQLVESGGGLVQAGGILRLSCAASGIIFQRNEMGWYRQTPGKERELVANIRDGGITYADSVKGRFTISRDNAKNTVYLEMNSLKPEDTAVYYCARDDTSPGYCDQSSNAAYYYWGQGTQVTVSS”, the “polyreactivity (PSR sort gate)” value was “low polyreactivity”.

For “QVQLVESGGGLVQAGGILRLSCAASGIIFSEYAMGWYRQAPGKERELVAAISKSSGSTRYADSVKGRFTISRDNAKNTVYLQMNSLKPEDTAVYYCAREYRWRYGYDYWGQGTQVTVSS”, the “polyreactivity (PSR sort gate)” value is “high polyreactivity”.

Consider “QVQLVESGGGLVQAGGILRLSCAASGITFGGYAMAWYRQAPGKERELVAAISRGGGSTNYADSVKGRFTISRDNAKNTVYLQINSLKPEDTAVYYCNARRQNSRYDYWGQGTQVTVSS”, for which the “polyreactivity (PSR sort gate)” value is “low polyreactivity”.

Turning to “QVQLVESGGGLVQAGGILRLSCAASGLIFNYYAMGWYRQAPGKERELVADITRGGSTNYADSVKGRFTISRDNANFTVYVQMNSMKPEDSAVYYCAARVRGWWYRYDYWGHGTQVTVSS”, the “polyreactivity (PSR sort gate)” value is on record as “high polyreactivity”.

As for “QVQLVESGGGLVQAGGILRLSCAASGLTFAKNAMGWYRQAPGKERELVAAITTGGSTYYADSVKGRFTISRDNAKNTVYLQMNSLKPEDTAVYYCAAQILVRHIPYYFWGQGSQVTVSS”, the “polyreactivity (PSR sort gate)” value was “high polyreactivity”.

“QVQLVESGGGLVQAGGILRLSCAASGLTFYGYAMGWYRQAPGKERELVAAITRGGGSTYYADSVKGRFTISRDNAKNTVYLQMNSLKPDDTAVYYCAADQTGWGDTYYYWGQGTQVTVSS”: the “polyreactivity (PSR sort gate)” value is “low polyreactivity”.

As for “QVQLVESGGGLVQAGGILRLSCAASGRIFTSNPMGWYRQAPGKEREFVAAISGSGDGTYYADSVKGRFTISRDTAKNTVYLQMNSLKPEDTAVYYCAARRRGTYPYPMGYWGQGTQVTVSS”, the “polyreactivity (PSR sort gate)” value was “high polyreactivity”.

For the sequence “QVQLVESGGGLVQAGGILRLSCAASGRIFVFYFMGWYRQAPGKERELVAAITRTGGSTYYADSVKGRFTISRDNAKNTVYLQMNSLKPEDTAFYYCATRYTRFRHFDYWGQGSQVTVSS”, the “polyreactivity (PSR sort gate)” value is recorded as “low polyreactivity”.

Take “QVQLVESGGGLVQAGGILRLSCAASGRTFAYNTMGWYRQAPGKERQLVAAISSDGSTNYADSVKGRFTISRDNAKNTVYLQMNSLKPEDTAVYYCAKGEGTGTSDTQVYEHDYWGQGTQVTVSS”: the “polyreactivity (PSR sort gate)” value was “low polyreactivity”.

“QVQLVESGGGLVQAGGILRLSCAASGRTFGRNAMGWYRQAQGKERELVAGISIGGGTTYYADSVKGRFTISRDNAKNTVYLQMNSLKPEDTAVYYCAARSWSYLHRYGYWGQGTLVTVSS”: the “polyreactivity (PSR sort gate)” value is recorded as “high polyreactivity”.

“QVQLVESGGGLVQAGGILRLSCAASGRTFTPYALGWYRQAAGKERDLVAAISSRGGSTYYADSVKGRFTISRDYAKNTVDLQMNSLKPEDTAVYYCNATQYPAADRYTNNYGGGFDYWGQGTQVTVSS”: the “polyreactivity (PSR sort gate)” value was “low polyreactivity”.

Consider “QVQLVESGGGLVQAGGILRLSCAASGSIFRPYAMGWYRQAPGKERELVAAIRWSTRNTYYADSVKGRFTISRDNAKNTVYLQMNSLKPEDTAVYYCAAAYWPVVWFYYWGQGTQVTVSS”, for which the “polyreactivity (PSR sort gate)” value is recorded as “low polyreactivity”.

On to “QVQLVESGGGLVQAGGILRLSCAASGSIFYAYDKGWYRQAPGKERELVAGISSSDSTYYADSVKGRFTISRDNAKNTVYLQLNSLKPEDTAVYYCAADPVFAAAYIHLYGIYDTWGQGTQVTVSS”, for which the “polyreactivity (PSR sort gate)” value is recorded as “low polyreactivity”.

For the sequence “QVQLVESGGGLVQAGGILRLSCAASGSILDLNAMGWYRQAPGKERELFAAISYSGDSTYYADSVKGRFTISRDNAKNTVYLQMNSLKPEDTAVYEGAAEVYGAVYDYWGQGTQVTVAS”, the “polyreactivity (PSR sort gate)” value was “low polyreactivity”.

Take “QVQLVESGGGLVQAGGILRLSCAASGSTFAGYAMGWYRQAPGKERELVATITYSGASTYYADSVKGRFTISRDNAKITVYLQMNSLKPEDTAVYYCGKKASYWWGYEYWGQGTQVTVSS”: the “polyreactivity (PSR sort gate)” value was “low polyreactivity”.

“QVQLVESGGGLVQAGGILRLSCAASGSTFGFNAMGWYRQAPGKERELVASITSGDSTYYADSVKGRFTISRDNAKNTVYLQMNSLKPEDTAVYYCAKVGGGGQAGDNPILSDYWGQGTQVTVSS”: the “polyreactivity (PSR sort gate)” value was “low polyreactivity”.

Consider “QVQLVESGGGLVQAGGILRLSCAASGSTFRLNAMVWYRQEPGKERELVASIRWSVGITYYADSVKGRFTISLDNSKNTFYLQMNSLKPEDTAVYYCANGDTNWRYYYWGQGTQVTVSS”, for which the “polyreactivity (PSR sort gate)” value is given as “high polyreactivity”.

On to “QVQLVESGGGLVQAGGILRLSCAASGSTFSPYAMGWYRQAPGKERELVANITISGGSTYYADSVKGRFTISRDNAKNTVYLQMNSLKAEDTAVYYCNADSLIRWLFTVVIFDYWGQGTQVTVSS”, for which the “polyreactivity (PSR sort gate)” value is “low polyreactivity”.

Take “QVQLVESGGGLVQAGGILRLSCAASGSTFSSNAMGWYRQAPGKERELVAAISVNGGSTNYADSVKVRFTISRDNAKNTVYLQMNSLKPEDTAVYYCAAEPAKVAFYRGDYWGQGTEVTVSS”: the “polyreactivity (PSR sort gate)” value is reported as “low polyreactivity”.

In the case of “QVQLVESGGGLVQAGGILRLSCAASGSTFTSYAMGWYRQAPGKERELVAAISKSGGSTYYADSVKGRFTISRDNAKNTVYLQMNSLKPEDTALYYCAARYNVRSYSTSRFYYWGQGTLVTVSS”, the “polyreactivity (PSR sort gate)” value is recorded as “low polyreactivity”.

Regarding “QVQLVESGGGLVQAGGILRLSCAASGSTFYGYAMGWYRQAPGKERELVAAITRSGGSTYYADSVKGRFTISRDNAKNTVYLQMNSLKPEDTEVYYCNKYGYKGGVGYDYWGQGTQVTVSS”, the “polyreactivity (PSR sort gate)” value was “high polyreactivity”.

On to “QVQLVESGGGLVQAGGILRLSCAPSGRIISWNPIGLYRQAPGQERELVADITYSGGSTYYADSVKGRFTISRDNAKNTVYLQMNSLKPEDTAVYDCNADPRWYHFEYGYWGQGTQVTVSS”, for which the “polyreactivity (PSR sort gate)” value is listed as “high polyreactivity”.

Turning to “QVQLVESGGGLVQAGGILRLSCAPSGSTFRANAMGWYRQAPGKERELVAAITSGGSTNYADSVKGRFTISRDNAKNTVYLQRNSLKPEDTAVYYCADESYQEHSFYVYYGYDYWGQGTQVTVSS”, the “polyreactivity (PSR sort gate)” value is on record as “low polyreactivity”.

For “QVQLVESGGGLVQAGGILRLSCASSGFTFSLYDMGWYRQAPRKDRELVADINGSGGSTYYADSVKGRFTISRDNAKNTVYLQLNILKPEDTAVYYCAAGPPSRWWYIVDYGYWGQGTQVTVSS”, the “polyreactivity (PSR sort gate)” value is given as “high polyreactivity”.
